Measurements reported in paper PMC8096230.

B1: NSP (non-specific probe) (dsDNA)
DNA 1: TGGGCTGAGGCTGGGTGTGGCCCGAC
DNA 2: GTCGGGCCACACCCAGCCTCAGCCCA
B2: GRE2 mut (dsDNA)
DNA 1: AGGCTGGGTATACAGAATGCCCTGCC
DNA 2: GGCAGGGCACTCTGTGTACCCAGCCT
B3: GRE1 mut (dsDNA)
DNA 1: TGAGTCAGGATTGAGTATTCTCACGG
DNA 2: CCGTGAGAACACTCAGTCCTGACTCA
B4: GRE2 (Eif4ebp2 GBSe2) (dsDNA)
DNA 1: AGGCTGGGTACACAGAGTGCCCTGCC
DNA 2: GGCAGGGCACTCTGTGTACCCAGCCT
B5: GRE1 (Eif4ebp2 GBSe1) (dsDNA)
DNA 1: TGAGTCAGGACTGAGTGTTCTCACGG
DNA 2: CCGTGAGAACACTCAGTCCTGACTCA
B6: GRE (Gilz) / GREgilz (dsDNA)
DNA 1: TGAGTCAGAACATTGGGTTCCCACGG
DNA 2: CCGTGGGAACCCAATGTTCTGACTCA

What follows are binders tested against T1, GR DBD (human, UniProt P04150 412-506) (assay: EMSA).
T1 sequence (P04150 412-506): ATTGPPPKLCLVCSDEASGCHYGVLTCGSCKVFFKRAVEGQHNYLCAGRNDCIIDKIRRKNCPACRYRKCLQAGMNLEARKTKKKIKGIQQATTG
B1: no binding. B2: no binding. B3: no binding.

These binders were tested against T1, GR DBD (assay: MST).
B4 was tested, and the Kd was 204 nM. Work on B5 yielded a Kd of 195 nM. B6 gave a Kd of 154 nM.
